Data: the DeepSol protein solubility set

Assay: soluble on expression in E. coli; label from the status in PepcDB or PDB records

Question: For “MDAKVYVGGLPSDATSQELEEIFDRFGRIRKVWVARRPPGFAFVEYDDVRDAEDAVRALDGSRICGVRARVELSTGQRRGGGGRGGGFGGRGGGGRDRSPYRGDRGRSRSRSRDRGRDRSRDRSRDRSRDRSRDRSRERSRERERTRSRSRSPQERDRSHSKSRSRSRSRSRSRSASPH”, which “soluble on expression in E. coli” value is on record?
Answer: soluble

Question: For “MDALEGESFALSFSSASDAEFDAVVGYLEDIIMDDEFQLLQRNFMDKYYLEFEDTEENKLIYTPIFNEYISLVEKYIEEQLLQRIPEFNMAAFTTTLQHHKDEVAGDIFDMLLTFTDFLAFKEMFLDYRAEKEGRGLDLSSGLVVTSLCKSSSLPASQNNLRHGHHHHHH”, which “soluble on expression in E. coli” value is on record?
Answer: not soluble

Question: Which “soluble on expression in E. coli” value does the source give for “MDASIEKRPRTRLSPQKRKLQLMEIALEVFAKRGIGRGGHADIAEIAQVSVATVFNYFPTREDLVDDVLNFVVRQYSNFLTDHIDLDLDVKTNLQTLCKEMVKLAMTDCHWLKVWFEWSASTRDEVWPLFVSTNRTNQLLIRNMFMKAMERGELCEKHDVDNMASLFHGIFYSIFLQVNRLGEQEAVYKLADSYLNMLCIYKN” here?
Answer: soluble

Question: For “MDASYSSSRPKKLNYTSYTSLKSVLKFLSVKKREQIHIHIPELRSVNALLPYAHEEVILDKFEIMIQNRSYLFKKLAEKAPKPEGVARRRPEYEYAEYNRLLVMDLGPPSLFDMNDLHHLWRPMGNQGPDRLSFGDLDSLEKRRLRFRRENRLQDSSEHGRTGNCEITISEEDGTAITVTKEIPVDIAYEKIFDAFFSNGSRIKLLKVQSFPDFLMRKDLLTLKVREIDCSSTASIDILELAPFLDHSSLKKLTLNVTNTNVDLLMLPLVQNCPVLRIVEAGTFLSRMLKTTLLSALQNQKLEIFPDIVIIESFPQLVQSWATSSRPIGSLVQVGIREDYKEVLDILDFLKESHGAHPAIIKKLENTDFSNGLSMLIDGDLELAIYGGGKISEEGLTRPQPCKWSLCMEVMKRGDTIPR”, which “soluble on expression in E. coli” value is on record?
Answer: not soluble

Question: For “MDDAELRAVRTLISLTTRYFAVFKNAPVIMAVIDDNGKVVDANNAAAELIGEKPSGKHLRELLPAELCEKVLSTLEKALEEEKKANLRAKVSGKLLRVQLTPISADGRKLCLLTGFSVEDELSKAAREILRLAARAGDAETVIKGMAKKFGELELFSQVKVELDGLREVVREKDGEFVYEFPLRMHRKKGRVTLESRKELSSEEIDMLAETFEDVSILISTLELESKLSAEVRRTVELINELREQLKAVTLSLEILENDGLKSIVKERLGKMLQVAERLAGE”, which “soluble on expression in E. coli” value is on record?
Answer: not soluble

Question: For “MDDASPTLASVIIPAFNAEAVLEQAVDSVRASIAHCAAHLAAAPAGAFEIILVDDASTDATLALARRLAAEDPRITVIARRRNGGAGPARNAGARAAKGEILFYLDADDGFLPPHVLACLQELLRHPEAGLVKTGIAVDFPLTEEWRQALIVSVVFNTALWKRCHEAIGGFMEDPELCVLRCEDVFYCDLLMRAFPARGIEAQTVRHTLRPGGAFDGQRAKFSAPPGEGPESLTPAQSAVLPLIRARHAERLARLGLEDAEALEHHHHHH”, which “soluble on expression in E. coli” value is on record?
Answer: not soluble

Question: With “MDDIRKIERLAAASWPAYFQKSIGKWLLRANFGVTKRANSVWTSADMPEGDFQLEAELFYQSLGLPVCFHISNASPKGLDDALADSRYEKVDECFQMTALCRSIMSRTNDNSRFTYKWEQEPSSVWIDEFIQLEGFSPERHKGYKHIFERMPPCKTFFKMYDKESLTALGTVSVIDGYGGLSNIVVAEEHRGKGAGTQVIRVLTEWAKNNGAERMFLQVMKENLAAVSLYGKIGFSPISEHHYRIKRLEHHHHHH” as the sequence, how does the “soluble on expression in E. coli” value read?
Answer: not soluble

Question: Which “soluble on expression in E. coli” value does the source give for “MDDYMVLRMIGEGSFGRALLVQHESSNQMFAMKEIRLPKSFSNTQNSRKEAVLLAKMKHPNIVAFKESFEAEGHLYIVMEYCDGGDLMQKIKQQKGKLFPEDMILNWFTQMCLGVNHIHKKRVLHRDIKSKNIFLTQNGKVKLGDFGSARLLSNPMAFACTYVGTPYYVPPEIWENLPYNNKSDIWSLGCILYELCTLKHPFQANSWKNLILKVCQGCISPLPSHYSYELQFLVKQMFKRNPSHRPSATTLLSRGIVARLVQKCLPPEIIMEYGEEVLEEIKNSKHNTPRKKTNPSRIRIALGNEASTVQEEEQDRKGSHTDLESINENLVESALRRVNREEKGNKSVHLRKASSPNLHRRQWEKNVPNTALTALENASILTSSLTAEDDRGGSVIKYSKNTTRKQWLKETPDTLLNILKNADLSLAFQTYTIYRPGSEGFLKGPLSEETEASDSVDGGHDSVILDPERLEPGLDEEDTDFEEEDDNPDWVSELKKRAGWQGLCDR” here?
Answer: soluble

Question: Which “soluble on expression in E. coli” value does the source give for “MDEDTRLSRYLYLTDREHINVDSIKQLCKISDPNACYRCGCTALHEYFYNYRSVNGKYKYRYNGYYQYYSSSDYENYNEYYYDDYDRTGMNSESDNISIKTEYENEYEFYDETQDQSTQLVDYDIKLKTNEDDFVDEFYGYDRSVGVHDYIDVSINKVVYGRESHVRWRDIWQEHNDGVYSIGKECIDNIYEDRHTVDEFYKIDSVSDVDDAEHISQITNDVSTQTWEKKSELDRYMEMYPRHRYGKHSVFKGFSDKVRKNDLDMNVVKELLSNGASLTIKDSSNKDPIAVYFRRTIMNLEMIDIINKHTTIYERRYIVHSYLKNYRNFDYPFFRKLVLTNKHCLNNYYNISDSKYGTPLHILASNKKIITPNYMKLLVYNGNDINARGEDTQMRTPLHKYLCKFVYHNIEYGIRYYNEKIIDAFIELGADLTIPNDDGMIPVVYCIHSNAEYGYNNITNIKIIRKLLNLSRHASHNLFRDRVMHDYISNTYIDLECLDIIRSLDGYDINCYFEGRTPLHCAIQYNFTQIAEYLLDRGADISLKTDDGKTVFDLSLCSYIPLKWTSFLISRLPPKSVICSLTNHIIDYVLTNNRRIIWQSQMINKYVLLLDPSFYYRFRNAIENKLDQYNNRYNMFEHDRDVNEKYGKVLHDLDTYIKDVQVLKSTSITNNITLYDTIINNKSEFPIRRANDKQLINLIKSNTYHNLIEKVIKNTLEKYTLTNIVLEYMISSQSQSQSSYLSRIPNEILLEILYKLDMYDLRNLYTRYMRENDITEYHIENTRSVSTQT” here?
Answer: not soluble

Question: Which “soluble on expression in E. coli” value does the source give for “MDEEASRTARESLELVFRMSNILDTGLDRHTLSVLIALCDLGVNPEALATVVKELRRESIPDSVTTTPSIH” here?
Answer: soluble

Question: Which “soluble on expression in E. coli” value does the source give for “MDEKKLFENFQLTFGRMISPFEIEDIQKWIHEDNMPIEVVNLALREAVENNKISWKYINKILVDWYKSGDTTVEKVRDRLQRFDDSKKQRSVTTSNVPSWSNPDYKEPDLEEFALGSMDGIEDGSGDF” here?
Answer: not soluble

Question: For “MDEQAVSTSMKTVYIRIYTSVLYTSYTKPGNWSAVDRSAWSVSCSNVYADDDAKYGAHLAIDGEINTTWFTWGVANAGECWWNTVLDRPVTLTGFSVTKQSAYGSGYNLRSAEIKVRKEGETEWVTYPRVLTFRNFKGADPQYAAIEPPIPNVKEFRINCLTPDNYTGFAEINLYVKQLEHHHHHH”, which “soluble on expression in E. coli” value is on record?
Answer: soluble

Question: With “MDEQVIKKVVEDVLKKVGIEQKEENKANRGEPVITNPGLTEFVGTALGDTIGLVIANVDASLHEKMGIDPKYRSIGIIGGRTGAGPQIMAADEAVKATNTEVVAIELPRDTKGGAGHGNLIIFGAEEVSDARRAVEVALKELRRTFGDVYVNEAGHLEFQYTARASYALQKAFGAPLGKAFGLIVGAPAAIGVLCCDTAVKAAEVEVIGYASPAKGTSMTNEAILFISGDSGAVRQAIIAAREVGLKLLSTLGEAPKSLSGEPYI” as the sequence, how does the “soluble on expression in E. coli” value read?
Answer: not soluble

Question: Which “soluble on expression in E. coli” value does the source give for “MDERTELLKRIEELEEKLRQCQQREQELEALIEEYNEVMKKQFQVFDDFFEKLGTTKMIDPLTRVYAKDHFLRLLSYQHQRAFEENTPYTIFFVKTKVSKNEREKALMKIGKILKECVRVPLDSVGRYSDDTFALFVIGVGKETAPNIEERIKNHIESIGGIEYSIAYKSYPEDFMDLEKAILDLEKAVA” here?
Answer: not soluble

Question: For “MDFKQYSPEELKECSMIEVVHSVLGDKKQATTFNELVQEIAQVLGLSQEQVNAKIAQFYTDLNIDGRFINLGENRWGLRSWYPYEQIDEEILPQPKPKKKRKVEEDGFDDYIDEDEDDFDDVDGNEDEDDDVEDLDKVLEDEDGDDDDLDDLDEDEDDFAEEELEYDETEEEEEEEL”, which “soluble on expression in E. coli” value is on record?
Answer: not soluble

Question: Which “soluble on expression in E. coli” value does the source give for “MDGGFVRVCLLASGSKGNSLFVESDGTRVLIDAGLSAREIVRRLAVIEVEPADLDGLFISHEHVDHVRGVGVLARKYRLPVHVSYPTHHEVREGFGDAPVVEFESGYSFGFRDLLIDPFPITHDACDPVGFTIESKEGKVGIATDLGTATRLVADKLKRCRVLVLESNHDEEMLMGGPYPWHLKQRIKSRHGHLSNNDSAALLAEVLHPGLEGLFLAHLSEVNNDPAVAKEVAENLLVAQTTCSPRLIVGDQYRPSETLTLLEHHHHHH” here?
Answer: soluble

Question: With “MDGLDYFEPNPDYRVAATVEVDDSDETITMETTAEGERLYERVARLTFEVPDASDNRDEHTLVAYQRVDQRGDGSLFVPFRDKTTGQQTYPAGRYMELHYEGDLEDGATVPLDFNLAYNPFCAYSDAYECPLPPQENWLEIVVPAGERDDQLEHHHHHH” as the sequence, how does the “soluble on expression in E. coli” value read?
Answer: soluble

Question: For “MDGTIKEALSVVSDDQSLFDSAYGAAAHLPKADMTASGSPDYGQPHKINPLPPQQEWINQPVRVNVKREYDHMNGSRESPVDCSVSKCSKLVGGGESNPMNYNSYMDEKNGPPPPNMTTNERRVIVPADPTLWTQEHVRQWLEWAIKEYSLMEIDTSFFQNMDGKELCKMNKEDFLRATTLYNTEVLLSHLSYLRESSLLAYNTTSHTDQSSRLSVKEDPSYDSVRRGAWGNNMNSGLNKSPPLGGAQTISKNTEQRPQPDPYQILGPTSSRLANPGSGQIQLWQFLLELLSDSANASCITWEGTNGEFKMTDPDEVARRWGERKSKPNMNYDKLSRALRYYYDKNIMTKVHGKRYAYKFDFHGIAQALQPHPTESSMYKYPSDISYMPSYHAHQQKVNFVPPHPSSMPVTSSSFFGAASQYWTSPTGGIYPNPNVPRHPNTHVPSHLGSYY”, which “soluble on expression in E. coli” value is on record?
Answer: soluble

Question: With “MDHENLMKYLEEFRSIRFQPDFQKVDAERNVRYCEITDFPISNISFELLETGVSQQWRNCDQNLFNEYLKTYKNGGYSQFEDLLFKIWGYSEEKERFDLPALKSFYRKMSEIVGEDEVLEKLARLVRITKSACEVLPEKIYRLVGDIESATFSHIQCASLIAWMFFSDTPRLSFIIILQKTTCVAVEKLKFLFTYFDKMSIDPPIGAVSFRKMRITHKQYLENWKLRETNLLPDVQVFDKMSIEETALCTQIDFANKRLGGGVLKGGAVQEEIRFMMCPEMMVAILLNDVTQDLEAISIVGAYVFSSYTGYSNTLKWAKITPKHSAQNNNSFRDQFGRLQTETVAIDAVRNAGTPLECLLNQLTTEKLTREVRKAAIGFLSAGDGFSKIPVVSGWWGCGAFRGNKPLKFLIQVIACGISDRPLQFCTFGDTELAKKCEEMMTLFRNNNVRTGQLFLIINSIGPPLNYSEQYVFDAIRAKINSTKA” as the sequence, how does the “soluble on expression in E. coli” value read?
Answer: not soluble

Question: For “MDIFYKKIKANVTPEVLAQLHSKKIILESTNQQQTKGRYSVVIFDIYGTLTLDNDVLSVSTLKESYQITERPYHYLTTKINEDYHNIQDEQLKSLPFISGYVGTCSFDLVRHEFPKLQSIQLEDHKQHDVRLYMVEQVYVFDHYKDELYIIATNQFSNSTKSDLENRVIKSIEDLTKIQPFMPTQDFDFKTKEIQSNISEERFIEMIQYFKEKITEGDMFQVVPSRIYKYAHHASQHLNQLSFQLYQNLKRQNPSPYMYYLNIDQPYIVGSSPESFVSVKDQIVTTNPIAGTIQRGETTQIDNENMKQLLNDPKECSEHRMLVDLGRNDIHRVSKIGTSKITKLMVIEKYEHVMHIVSEVTGKINQNLSPMTVIANLLPTGTVSGAPKLRAIERIYEQYPHKRGVYSGGVGYINCNHNLDFALAIRTMMIDEQYINVEAGCGVVYDSIPEKELNETKLKAKSLLEVSP”, which “soluble on expression in E. coli” value is on record?
Answer: not soluble

Question: With “MDIKINDITLGNNSPFVLFGGICVLESLDSTLQTCAHYVEVTRKLGIPYIFKASFDKANRSSIHSYRGVGLEEGLKIFEKVKAEFGIPVITDVHEPHQCQPVAEVCDVIQLPAFLARQTDLVVAMAKTGNVVNIKKPQFLSPSQMKNIVEKFHEAGNGKLILCERGSSFGYDNLVVDMLGFGVMKQTCGNLPVIFDVTHSLQTRDAGSAASGGRRAQALDLALAGMATRLAGLFLESHPDPKLAKCEGASALPLHLLEDFLIRIKALDDLIKSQPILTIE” as the sequence, how does the “soluble on expression in E. coli” value read?
Answer: soluble
